The values below come from US20240010736A1.

The experiment concerns the target human thrombopoietin receptor (hTPOR, genetic name MPL), on cells (human) (UniProt P40238). Briefly: cell-based or functional assay.

On to “recombinant human thrombopoietin (rhTPO) (from UniProt P40225 22-353) (ligand)”, for which the EC50 of cell proliferation of BaF3/MPL cells was found to be 1.3 ng/mL.
